Data as given in patent publication US20230265151A1, “GIP/GLP1 CO-AGONIST COMPOUNDS” (priority 2020, published 2023).

T1: human GIP receptor (human, UniProt P48546 22-466)
T1 sequence (looked up): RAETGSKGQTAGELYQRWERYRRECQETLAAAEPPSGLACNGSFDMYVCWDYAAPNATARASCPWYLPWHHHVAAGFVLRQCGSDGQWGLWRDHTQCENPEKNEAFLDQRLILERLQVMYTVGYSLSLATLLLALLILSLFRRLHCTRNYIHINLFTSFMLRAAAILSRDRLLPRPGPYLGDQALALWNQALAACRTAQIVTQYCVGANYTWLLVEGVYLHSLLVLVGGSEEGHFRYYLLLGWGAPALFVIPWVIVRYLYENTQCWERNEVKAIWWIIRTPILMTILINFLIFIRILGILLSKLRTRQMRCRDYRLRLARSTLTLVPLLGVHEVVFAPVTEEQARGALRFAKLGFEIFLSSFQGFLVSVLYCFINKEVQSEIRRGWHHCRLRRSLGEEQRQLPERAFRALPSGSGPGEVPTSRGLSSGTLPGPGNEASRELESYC


Key:
Experiment in all cases: cell-based or functional assay
[1] = molecular target: T1, human GIP receptor
[2] = molecular target: human GLP-1 receptor (human, UniProt P43220 24-463)
[3] = molecular target: human glucagon receptor (human, UniProt P47871 26-477)

Row | Binder | cAMP EC50 (1.0% HSA) [1] [nM] | cAMP EC50 (1.0% HSA) [2] [nM] | cAMP EC50 (1.0% HSA) [3] [nM] | cAMP Emax (1.0% HSA) [1] [%] | cAMP Emax (1.0% HSA) [2] [%]
1 | YXEGTXTSDXSIXLDXKAQXEFIXXLIKGGPSSGAPPPS (Y-Aib-EGT-αMeF(2F)-TSD-2Nal-SI-αMeL-LD-Orn-K((2-[2-(2-Amino-ethoxy)-ethoxy]-acetyl)2-(γ-Glu)-CO-(CH2)12-CO2H)AQ-Aib-EFI-(D-Glu)-αMeY-LIK((2-[2-(2-Amino-ethoxy)-ethoxy]-acetyl)2-(γ-Glu)-CO-(CH2)12-CO2H)GGPSSGAPPPS-NH2) [Example 250] | 38.8 | 63 | > 9950 |  | 
2 | YXEGTXTSDXSIXLDXKAQXEFIXXLIEGGPSSGAPPPSK (Y-Aib-EGT-αMeF(2F)-TSD-2Nal-SI-αMeL-LD-Orn-K((2-[2-(2-Amino-ethoxy)-ethoxy]-acetyl)2-(γ-Glu)-CO-(CH2)12-CO2H)AQ-Aib-EFI-(D-Glu)-αMeY-LIEGGPSSGAPPPSK((2-[2-(2-Amino-ethoxy)-ethoxyl-acetyl)2-(γ-Glu)-CO-(CH2)12-CO2H)-NH2) [Example 251] | 14.3 | 51 | > 9950 | 71.2 | 
3 | YXEGTXTSDXSIXLDXIAQXEFIKXLIKGGPSSGAPPPS (Y-Aib-EGT-αMeF(2F)-TSD-2Nal-SI-αMeL-LD-Orn-IAQ-Aib-EFIK((2-[2-(2-Amino-ethoxy)-ethoxy]-acetyl)2-(γ-Glu)-CO-(CH2)12-CO2H)-αMeY-LIK((2-[2-(2-Amino-ethoxy)-ethoxy]-acetyl)2-(γ-Glu)-CO-(CH2)12-CO2H)GGPSSGAPPPS-NH2) [Example 252] | 29.9 | 131 | > 9950 |  | 
4 | YXEGTXTSDXSIXLDXIAQXKFIXXLIKGGPSSGAPPPS (Y-Aib-EGT-αMeF(2F)-TSD-2Nal-SI-αMeL-LD-Orn-IAQ-Aib-K((2-[2-(2-Amino-ethoxy)-ethoxy]-acetyl)2-(γ-Glu)-CO-(CH2)12-CO2H)Fl-(D-Glu)-αMeY-LIK((2-[2-(2-Amino-ethoxy)-ethoxy]-acetyl)2-(γ-Glu)-CO-(CH2)12-CO2H)GGPSSGAPPPS-NH2) [Example 253] | 21.7 | 192 | > 9950 |  | 
5 | YXEGTXTSDXSIXLDXIAQXKFIXXLIEGGPSSGAPPPSK (Y-Aib-EGT-αMeF(2F)-TSD-2Nal-SI-αMeL-LD-Orn-IAQ-Aib-K((2-[2-(2-Amino-ethoxy)-ethoxy]-acetyl)2-(γ-Glu)-CO-(CH2)12-CO2H)FI-(D-Glu)-αMeY-LIEGGPSSGAPPPSK((2-[2-(2-Amino-ethoxy)-ethoxyl-acetyl)2-(γ-Glu)-CO-(CH2)12-CO2H)-NH2) [Example 254] | 16.8 | 211 | > 9950 | 68.5 | 122
6 | YXEGTXTSDXSIXLDXKAQXKFIXXLIEGGPSSGAPPPS (Y-Aib-EGT-αMeF(2F)-TSD-2Nal-SI-αMeL-LD-Orn-K((2-[2-(2-Amino-ethoxy)-ethoxy]-acetyl)2-CO-(CH2)12-CO2H)AQ-Aib-K((2-[2-(2-Amino-ethoxy)-ethoxy]-acetyl)2-CO-(CH2)12-CO2H)FI-(D-Glu)-αMeY-LIEGGPSSGAPPPS-NH2 …) [Example 255] | 2.27 | 13.7 | > 9950 |  | 
7 | YXEGTXTSDXSIXLDXKAQXEFIXXLIKGGPSSGAPPPS (Y-Aib-EGT-αMeF(2F)-TSD-2Nal-SI-αMeL-LD-Orn-K((2-[2-(2-Amino-ethoxy)-ethoxy]-acetyl)2-CO-(CH2)12-CO2H)AQ-Aib-EFI-(D-Glu)-αMeY-LIK((2-[2-(2-Amino-ethoxy)-ethoxy]-acetyl)2-CO-(CH2)12-CO2H)GGPSSGAPPPS-NH2 …) [Example 256] | 1.5 | 12.6 | > 9950 | 75.3 | 
8 | YXEGTXTSDXSIXLDXKAQXEFIXXLIEGGPSSGAPPPSK (Y-Aib-EGT-αMeF(2F)-TSD-2Nal-SI-αMeL-LD-Orn-K((2-[2-(2-Amino-ethoxy)-ethoxy]-acetyl)2-CO-(CH2)12-CO2H)AQ-Aib-EFI-(D-Glu)-αMeY-LIEGGPSSGAPPPSK((2-[2-(2-Amino-ethoxy)-ethoxy]-acetyl)2-CO-(CH2)12-CO2H)-NH2) [Example 257] | 5.61 | 46.3 | > 9950 | 72.2 | 
9 | YXEGTXTSDXSIXLDXIAQXKFIXXLIEGGPSSGAPPPSK (Y-Aib-EGT-αMeF(2F)-TSD-2Nal-SI-αMeL-LD-Orn-IAQ-Aib-K((2-[2-(2-Amino-ethoxy)-ethoxy]-acetyl)2-CO-(CH2)12-CO2H)Fl-(D-Glu)-αMeY-LIEGGPSSGAPPPSK((2-[2-(2-Amino-ethoxy)-ethoxy]-acetyl)2-CO-(CH2)12-CO2H)-NH2) [Example 258] | 5.28 | 41.5 | > 9950 | 84.3 | 
10 | YXEGTXTSDXSIXLDXKAQXKFIXXLIEGGPSSGAPPPS (Y-Aib-EGT-αMeF(2F)-TSD-OMeY-SI-αMeL-LD-Orn-K((2-[2-(2-Amino-ethoxy)-ethoxy]-acetyl)2-(γ-Glu)-CO-(CH2)12-CO2H)AQ-Aib-K((2-[2-(2-Amino-ethoxy)-ethoxy]-acetyl)2-(γ-Glu)-CO-(CH2)12-CO2H)FI-(D-Glu)-αMeY-LIEGGPSSGAPPPS-NH2) [Example 259] | 2.34 | 28.9 | > 9950 | 66.4 | 
11 | YXEGTXTSDXSIXLDXKAQXEFIXXLIKGGPSSGAPPPS (Y-Aib-EGT-αMeF(2F)-TSD-OMeY-SI-αMeL-LD-Orn-K((2-[2-(2-Amino-ethoxy)-ethoxy]-acetyl)2-(γ-Glu)-CO-(CH2)12-CO2H)AQ-Aib-EFI-(D-Glu)-αMeY-LIK((2-[2-(2-Amino-ethoxy)-ethoxy]-acetyl)2-(γ-Glu)-CO-(CH2)12-CO2H)GGPSSGAPPPS-NH2) [Example 260] | 3.27 | 32 | > 9950 |  | 
12 | YXEGTXTSDXSIXLDXKAQXEFIXXLIEGGPSSGAPPPSK (Y-Aib-EGT-αMeF(2F)-TSD-OMeY-SI-αMeL-LD-Orn-K((2-[2-(2-Amino-ethoxy)-ethoxy]-acetyl)2-(γ-Glu)-CO-(CH2)12-CO2H)AQ-Aib-EFI-(D-Glu)-αMeY-LIEGGPSSGAPPPSK((2-[2-(2-Amino-ethoxy)-ethoxy]-acetyl)2-(γ-Glu)-CO-(CH2)12-CO2H)-NH2) [Example 261] | 2.28 | 15.6 | > 9950 | 75.7 | 
13 | YXEGTXTSDXSIXLDXIAQXEFIKXLIKGGPSSGAPPPS (Y-Aib-EGT-αMeF(2F)-TSD-OMeY-SI-αMeL-LD-Orn-IAQ-Aib-EFIK((2-[2-(2-Amino-ethoxy)-ethoxy]-acetyl)2-(γ-Glu)-CO-(CH2)12-CO2H)-αMeY-LIK((2-[2-(2-Amino-ethoxy)-ethoxy]-acetyl)2-(γ-Glu)-CO-(CH2)12-CO2H)GGPSSGAPPPS-NH2) [Example 262] | 8.15 | 69.8 | > 9950 | 79.7 | 
14 | YXEGTXTSDXSIXLDXIAQXKFIXXLIKGGPSSGAPPPS (Y-Aib-EGT-αMeF(2F)-TSD-OMeY-SI-αMeL-LD-Orn-IAQ-Aib-K((2-[2-(2-Amino-ethoxy)-ethoxy]-acetyl)2-(γ-Glu)-CO-(CH2)12-CO2H)FI-(D-Glu)-αMeY-LIK((2-[2-(2-Amino-ethoxy)-ethoxy]-acetyl)2-(γ-Glu)-CO-(CH2)12-CO2H)GGPSSGAPPPS-NH2) [Example 263] | 5.91 | 56.7 | > 9950 |  | 
15 | YXEGTXTSDXSIXLDXIAQXKFIXXLIEGGPSSGAPPPSK (Y-Aib-EGT-αMeF(2F)-TSD-OMeY-SI-αMeL-LD-Orn-IAQ-Aib-K((2-[2-(2-Amino-ethoxy)-ethoxy]-acetyl)2-(γ-Glu)-CO-(CH2)12-CO2H)FI-(D-Glu)-αMeY-LIEGGPSSGAPPPSK((2-[2-(2-Amino-ethoxy)-ethoxyl-acetyl)2-(γ-Glu)-CO-(CH2)12-CO2H)-NH2) [Example 264] | 7.12 | 75.2 | > 9950 | 84.4 | 
